Source: IntAct's records for PubMed 30487161

Molecular target: egln1_human EGLN1 (UniProt Q9GZT9)
Sequence (Q9GZT9 whole entry, looked up): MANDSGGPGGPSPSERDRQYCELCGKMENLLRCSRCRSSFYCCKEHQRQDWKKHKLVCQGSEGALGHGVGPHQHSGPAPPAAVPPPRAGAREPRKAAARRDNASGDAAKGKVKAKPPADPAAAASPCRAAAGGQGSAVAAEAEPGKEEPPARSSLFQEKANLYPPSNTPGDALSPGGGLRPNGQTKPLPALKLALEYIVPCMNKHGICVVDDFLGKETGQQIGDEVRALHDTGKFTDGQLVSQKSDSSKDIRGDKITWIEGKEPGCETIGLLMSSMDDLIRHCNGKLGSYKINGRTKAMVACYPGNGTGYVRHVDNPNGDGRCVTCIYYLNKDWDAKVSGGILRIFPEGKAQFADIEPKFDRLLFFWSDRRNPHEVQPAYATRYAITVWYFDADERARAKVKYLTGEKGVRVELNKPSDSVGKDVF

Chain of Endothelial PAS domain-containing protein 1 (Homo sapiens), Q99814 G724W (Q99814 whole entry G724W, the tested form may be a part): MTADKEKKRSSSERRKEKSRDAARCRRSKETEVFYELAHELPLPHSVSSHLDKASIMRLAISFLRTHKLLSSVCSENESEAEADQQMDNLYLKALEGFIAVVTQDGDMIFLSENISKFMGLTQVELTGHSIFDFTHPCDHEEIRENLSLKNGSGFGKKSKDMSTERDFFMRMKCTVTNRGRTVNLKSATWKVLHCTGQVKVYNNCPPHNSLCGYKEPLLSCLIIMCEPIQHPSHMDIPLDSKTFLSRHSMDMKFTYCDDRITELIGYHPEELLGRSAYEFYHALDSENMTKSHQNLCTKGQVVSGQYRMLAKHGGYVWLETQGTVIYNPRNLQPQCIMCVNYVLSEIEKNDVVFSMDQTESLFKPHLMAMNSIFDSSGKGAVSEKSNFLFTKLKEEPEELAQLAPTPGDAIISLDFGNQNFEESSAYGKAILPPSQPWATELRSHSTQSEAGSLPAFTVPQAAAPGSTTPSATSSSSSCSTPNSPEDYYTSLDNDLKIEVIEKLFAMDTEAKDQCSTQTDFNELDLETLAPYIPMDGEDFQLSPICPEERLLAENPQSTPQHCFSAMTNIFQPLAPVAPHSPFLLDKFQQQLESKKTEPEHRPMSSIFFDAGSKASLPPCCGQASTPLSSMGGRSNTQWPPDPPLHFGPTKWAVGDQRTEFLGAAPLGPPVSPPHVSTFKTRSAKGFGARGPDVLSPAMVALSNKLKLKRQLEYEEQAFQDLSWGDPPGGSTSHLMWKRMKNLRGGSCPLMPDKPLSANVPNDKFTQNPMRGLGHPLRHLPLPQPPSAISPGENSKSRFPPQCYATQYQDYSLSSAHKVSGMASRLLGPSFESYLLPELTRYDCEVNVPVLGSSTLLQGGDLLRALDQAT
Chain of Endothelial PAS domain-containing protein 1 (Homo sapiens), Q99814 N203H (Q99814 whole entry N203H, the tested form may be a part): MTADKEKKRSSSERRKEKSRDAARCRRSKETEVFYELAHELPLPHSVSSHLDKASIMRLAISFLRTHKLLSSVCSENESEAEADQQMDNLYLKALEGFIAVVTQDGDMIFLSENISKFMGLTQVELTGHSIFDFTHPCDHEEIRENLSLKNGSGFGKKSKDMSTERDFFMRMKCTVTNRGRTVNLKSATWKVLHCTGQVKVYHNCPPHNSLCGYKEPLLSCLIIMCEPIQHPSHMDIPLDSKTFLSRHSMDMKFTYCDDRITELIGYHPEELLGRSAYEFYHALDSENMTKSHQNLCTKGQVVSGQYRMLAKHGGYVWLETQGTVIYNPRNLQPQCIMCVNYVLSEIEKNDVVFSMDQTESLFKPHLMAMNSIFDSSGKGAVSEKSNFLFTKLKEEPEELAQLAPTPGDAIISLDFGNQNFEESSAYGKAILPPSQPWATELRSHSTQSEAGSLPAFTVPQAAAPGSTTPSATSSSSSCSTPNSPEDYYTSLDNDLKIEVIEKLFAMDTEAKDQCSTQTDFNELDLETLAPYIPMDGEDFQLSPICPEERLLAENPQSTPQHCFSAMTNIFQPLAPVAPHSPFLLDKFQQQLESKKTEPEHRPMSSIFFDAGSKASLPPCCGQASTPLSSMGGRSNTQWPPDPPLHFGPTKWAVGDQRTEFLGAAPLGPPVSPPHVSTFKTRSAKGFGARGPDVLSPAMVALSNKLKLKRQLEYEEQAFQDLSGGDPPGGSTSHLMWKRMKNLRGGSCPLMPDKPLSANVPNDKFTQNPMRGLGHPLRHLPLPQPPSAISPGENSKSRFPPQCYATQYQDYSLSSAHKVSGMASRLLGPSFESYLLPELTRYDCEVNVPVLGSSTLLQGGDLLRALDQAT

Substance | effect of a mutation on the interaction
Endothelial PAS domain-containing protein 1 (Homo sapiens), Q99814 G724W | with no effect
Endothelial PAS domain-containing protein 1 (Homo sapiens), Q99814 N203H | increasing interaction strength
